Reference: PMC12003778

Tests used:
[1] = target: human GLT25D1/COLGALT1 (wild type) (human) (UniProt Q8NBJ5); experiment: SEC-SAXS
[2] = target: human GLT25D1/COLGALT1 (wild type) (human) (UniProt Q8NBJ5); experiment: mass photometry
[3] = target: human GLT25D1/COLGALT1 (wild type) (human) (UniProt Q8NBJ5); experiment: SEC-MALS

Measured: stoichiometry N

human GLT25D1/COLGALT1 (wild type) (from UniProt Q8NBJ5 30-618) (enzyme)
2: all assays above
